Measured values from patent publication US20060024661A1, “Modulation of CRF potentiation of NMDA receptor currents via CRF receptor 2” (The Regents of the University of California, priority 2003, published 2006).

Tests used:
[1] = target: CRF receptor 2 (CRF-R2) (mouse) (UniProt Q60748); assay: cell-based or functional assay
[2] = target: CRF receptor 1 (CRF-R1) (mouse) (UniProt P35347); assay: cell-based or functional assay
CRF receptor 1 (CRF-R1) (mouse), sequence (P35347 24-415): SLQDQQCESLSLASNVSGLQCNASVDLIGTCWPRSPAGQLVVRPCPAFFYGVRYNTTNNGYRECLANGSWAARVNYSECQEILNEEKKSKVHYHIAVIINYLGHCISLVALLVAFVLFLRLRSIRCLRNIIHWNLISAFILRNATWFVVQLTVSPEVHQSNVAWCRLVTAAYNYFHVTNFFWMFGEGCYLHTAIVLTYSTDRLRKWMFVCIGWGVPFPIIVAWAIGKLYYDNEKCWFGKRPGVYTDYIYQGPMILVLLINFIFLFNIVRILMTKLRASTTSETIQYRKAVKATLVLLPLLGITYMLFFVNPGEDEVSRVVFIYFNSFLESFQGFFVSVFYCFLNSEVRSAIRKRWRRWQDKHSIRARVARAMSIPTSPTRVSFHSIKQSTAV

CRF receptor 2 (CRF-R2) (mouse), sequence (Q60748 20-411): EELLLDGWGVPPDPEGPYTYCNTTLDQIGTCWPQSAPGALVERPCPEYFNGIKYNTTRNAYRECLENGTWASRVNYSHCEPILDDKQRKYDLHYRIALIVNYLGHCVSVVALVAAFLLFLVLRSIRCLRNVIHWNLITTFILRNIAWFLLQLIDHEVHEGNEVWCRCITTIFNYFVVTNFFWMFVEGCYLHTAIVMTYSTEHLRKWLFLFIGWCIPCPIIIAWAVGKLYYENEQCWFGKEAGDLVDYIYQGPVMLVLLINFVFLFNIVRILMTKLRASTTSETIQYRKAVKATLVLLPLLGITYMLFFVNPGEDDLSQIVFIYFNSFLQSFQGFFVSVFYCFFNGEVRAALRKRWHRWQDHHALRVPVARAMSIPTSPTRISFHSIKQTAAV

| Substance | NMDAR EPSCs (% of baseline) 15 mins after CRF onset in the presence of 30 nM Antisauvagine-30 [1] | hippocampal CA1 field potentials (% of baseline), CRF 1 µM plus 3 µM CP-154,526 (selective CRF-R1 antagonist, small molecule) [2] | hippocampal CA1 field potentials (% of baseline), CRF 1 µM, 15 mins after CRF onset [2] | NMDAR-mediated EPSCs (% of baseline) in VTA dopamine neurons, CRF 100 nM, 25 mins after CRF onset [1] |
| --- | --- | --- | --- | --- |
| Antisauvagine-30 (peptide) | 114% | – | – | – |
| human/rat corticotrophin-releasing factor (CRF) (from UniProt P06850 154-194) (peptide) | – | 82.9% | 143% | 128% |
